Results as given in the supplement of paper PMC10065799, “High-throughput profiling of sequence recognition by tyrosine kinases and SH2 domains using bacterial peptide display” (eLife, 2023).

Tests used:
c-Src SH2 = experiment: SH2 binding enrichment of the phosphorylated peptide, bacterial display (enrichment ratio); higher = better substrate or ligand; peptides without Tyr show the background
Grb2 SH2 = Grb2 SH2 (UniProt P62993); experiment: as above
SHP2-C SH2 = experiment: as above
Fer (mouse) = experiment: phosphorylation enrichment, bacterial display (enrichment ratio); higher = better substrate or ligand; peptides without Tyr show the background
Fyn = Fyn (UniProt P06241); experiment: as above
FGFR3 = FGFR3 (UniProt P22607); experiment: as above
Sequence of FGFR3 (P22607 whole entry, looked up): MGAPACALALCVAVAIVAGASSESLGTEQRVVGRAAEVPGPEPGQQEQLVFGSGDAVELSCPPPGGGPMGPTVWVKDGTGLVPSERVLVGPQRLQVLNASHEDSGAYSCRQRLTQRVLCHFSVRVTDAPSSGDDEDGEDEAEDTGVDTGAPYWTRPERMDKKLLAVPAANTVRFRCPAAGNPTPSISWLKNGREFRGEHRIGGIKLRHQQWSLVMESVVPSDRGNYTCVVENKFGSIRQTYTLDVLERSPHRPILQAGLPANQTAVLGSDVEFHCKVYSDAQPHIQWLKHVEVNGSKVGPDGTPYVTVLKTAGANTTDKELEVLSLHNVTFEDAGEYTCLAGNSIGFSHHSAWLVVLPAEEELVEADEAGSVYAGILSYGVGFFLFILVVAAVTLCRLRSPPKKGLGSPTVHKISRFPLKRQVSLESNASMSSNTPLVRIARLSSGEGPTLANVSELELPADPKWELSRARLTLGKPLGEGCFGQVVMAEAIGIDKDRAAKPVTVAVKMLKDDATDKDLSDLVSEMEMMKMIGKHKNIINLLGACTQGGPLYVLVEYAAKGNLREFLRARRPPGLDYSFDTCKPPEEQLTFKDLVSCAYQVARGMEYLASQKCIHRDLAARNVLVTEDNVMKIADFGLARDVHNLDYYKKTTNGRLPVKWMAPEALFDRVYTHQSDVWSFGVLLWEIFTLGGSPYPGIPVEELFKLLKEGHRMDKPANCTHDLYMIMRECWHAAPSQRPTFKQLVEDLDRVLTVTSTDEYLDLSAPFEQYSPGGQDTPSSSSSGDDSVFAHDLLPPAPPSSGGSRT

Jak2 = Jak2 (UniProt O60674); experiment: as above
MERTK = MERTK (UniProt Q12866); experiment: as above
Sequence of MERTK (Q12866 whole entry, looked up): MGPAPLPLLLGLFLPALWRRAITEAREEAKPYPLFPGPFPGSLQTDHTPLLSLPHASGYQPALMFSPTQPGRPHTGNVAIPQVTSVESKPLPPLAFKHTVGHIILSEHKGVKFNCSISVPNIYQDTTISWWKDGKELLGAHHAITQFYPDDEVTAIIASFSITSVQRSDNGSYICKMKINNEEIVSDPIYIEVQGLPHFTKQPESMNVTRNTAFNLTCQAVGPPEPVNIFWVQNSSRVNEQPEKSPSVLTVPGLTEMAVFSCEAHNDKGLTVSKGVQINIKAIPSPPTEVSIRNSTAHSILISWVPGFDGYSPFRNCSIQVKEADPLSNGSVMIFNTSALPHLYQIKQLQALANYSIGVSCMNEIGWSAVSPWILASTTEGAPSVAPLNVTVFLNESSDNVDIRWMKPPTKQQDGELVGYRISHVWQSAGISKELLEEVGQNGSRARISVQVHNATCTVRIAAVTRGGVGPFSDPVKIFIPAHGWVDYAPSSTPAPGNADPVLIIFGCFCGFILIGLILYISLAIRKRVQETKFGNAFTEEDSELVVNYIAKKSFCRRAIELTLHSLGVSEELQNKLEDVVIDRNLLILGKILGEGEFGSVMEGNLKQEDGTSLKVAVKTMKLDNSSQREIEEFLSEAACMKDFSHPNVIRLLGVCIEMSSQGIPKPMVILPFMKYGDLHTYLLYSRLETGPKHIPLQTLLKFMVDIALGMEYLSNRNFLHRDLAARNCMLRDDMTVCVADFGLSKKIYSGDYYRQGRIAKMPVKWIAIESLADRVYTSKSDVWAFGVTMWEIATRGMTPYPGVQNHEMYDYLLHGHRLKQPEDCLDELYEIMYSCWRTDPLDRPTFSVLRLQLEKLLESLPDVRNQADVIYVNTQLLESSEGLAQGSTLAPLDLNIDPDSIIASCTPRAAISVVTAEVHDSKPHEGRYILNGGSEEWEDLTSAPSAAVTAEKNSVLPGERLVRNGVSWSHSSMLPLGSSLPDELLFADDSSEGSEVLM

Fes = Fes (UniProt P07332); experiment: as above
Sequence of Fes (P07332 whole entry, looked up): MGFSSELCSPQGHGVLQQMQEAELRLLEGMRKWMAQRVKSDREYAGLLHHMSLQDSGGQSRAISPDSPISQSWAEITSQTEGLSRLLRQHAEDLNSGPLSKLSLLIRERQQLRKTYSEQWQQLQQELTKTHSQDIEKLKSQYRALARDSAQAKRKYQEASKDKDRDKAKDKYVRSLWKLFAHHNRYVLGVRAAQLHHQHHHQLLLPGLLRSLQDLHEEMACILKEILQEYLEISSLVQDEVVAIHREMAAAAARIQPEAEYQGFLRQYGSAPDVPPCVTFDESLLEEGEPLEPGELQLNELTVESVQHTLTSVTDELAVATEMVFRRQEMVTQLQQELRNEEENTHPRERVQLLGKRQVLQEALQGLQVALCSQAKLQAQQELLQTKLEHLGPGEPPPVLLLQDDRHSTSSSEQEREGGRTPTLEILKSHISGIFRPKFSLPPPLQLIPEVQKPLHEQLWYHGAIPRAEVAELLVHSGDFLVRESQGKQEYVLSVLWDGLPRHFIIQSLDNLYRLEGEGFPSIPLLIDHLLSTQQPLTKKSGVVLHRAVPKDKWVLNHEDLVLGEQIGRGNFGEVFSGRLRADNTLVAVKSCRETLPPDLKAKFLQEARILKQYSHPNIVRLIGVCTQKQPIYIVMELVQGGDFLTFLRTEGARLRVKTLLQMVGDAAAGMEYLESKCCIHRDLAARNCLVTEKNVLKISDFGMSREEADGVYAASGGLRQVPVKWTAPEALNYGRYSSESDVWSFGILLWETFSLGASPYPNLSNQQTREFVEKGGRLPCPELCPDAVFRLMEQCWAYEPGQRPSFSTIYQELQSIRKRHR

FGFR1 = FGFR1 (UniProt P11362); experiment: as above
Sequence of FGFR1 (P11362 whole entry, looked up): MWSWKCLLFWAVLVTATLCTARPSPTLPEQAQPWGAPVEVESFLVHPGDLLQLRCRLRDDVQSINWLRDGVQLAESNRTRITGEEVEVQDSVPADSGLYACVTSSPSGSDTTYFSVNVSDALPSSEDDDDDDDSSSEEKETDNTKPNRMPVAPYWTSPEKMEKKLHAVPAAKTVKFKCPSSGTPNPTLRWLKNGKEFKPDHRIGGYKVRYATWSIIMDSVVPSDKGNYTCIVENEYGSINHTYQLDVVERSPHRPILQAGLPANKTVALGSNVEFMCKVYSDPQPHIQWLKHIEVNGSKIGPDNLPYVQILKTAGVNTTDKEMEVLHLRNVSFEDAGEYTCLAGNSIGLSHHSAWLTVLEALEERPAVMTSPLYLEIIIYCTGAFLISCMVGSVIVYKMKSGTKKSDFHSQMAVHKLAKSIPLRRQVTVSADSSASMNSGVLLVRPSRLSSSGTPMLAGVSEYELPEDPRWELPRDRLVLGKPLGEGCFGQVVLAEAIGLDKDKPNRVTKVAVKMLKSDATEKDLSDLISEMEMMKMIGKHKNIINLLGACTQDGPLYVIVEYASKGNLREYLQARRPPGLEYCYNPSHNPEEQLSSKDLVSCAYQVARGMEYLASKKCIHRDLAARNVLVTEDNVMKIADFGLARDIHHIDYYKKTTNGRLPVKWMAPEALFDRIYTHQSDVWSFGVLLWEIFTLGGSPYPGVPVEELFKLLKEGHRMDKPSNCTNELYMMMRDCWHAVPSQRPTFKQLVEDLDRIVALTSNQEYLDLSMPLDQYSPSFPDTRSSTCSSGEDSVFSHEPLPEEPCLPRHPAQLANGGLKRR

c-Src = experiment: as above
AncSZ = experiment: as above
EPHB2 = EPHB2 (UniProt P29323); experiment: as above
Hck = Hck (UniProt P08631); experiment: as above
Sequence of Hck (P08631 whole entry, looked up): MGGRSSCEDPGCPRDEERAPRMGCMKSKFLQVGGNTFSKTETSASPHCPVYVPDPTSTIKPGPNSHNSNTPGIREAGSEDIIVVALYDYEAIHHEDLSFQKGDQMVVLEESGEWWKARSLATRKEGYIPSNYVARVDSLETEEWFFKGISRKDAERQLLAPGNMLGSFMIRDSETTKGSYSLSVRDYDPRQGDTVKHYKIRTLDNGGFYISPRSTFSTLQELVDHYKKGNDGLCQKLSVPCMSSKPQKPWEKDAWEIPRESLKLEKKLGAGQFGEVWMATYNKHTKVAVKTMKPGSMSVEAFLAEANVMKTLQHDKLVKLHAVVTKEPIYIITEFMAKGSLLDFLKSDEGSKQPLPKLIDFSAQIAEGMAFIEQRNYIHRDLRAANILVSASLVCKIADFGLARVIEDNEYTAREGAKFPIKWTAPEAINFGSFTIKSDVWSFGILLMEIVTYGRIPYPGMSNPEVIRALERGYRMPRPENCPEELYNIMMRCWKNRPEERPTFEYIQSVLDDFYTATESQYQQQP

EPHB1 = EPHB1 (UniProt P54762); experiment: as above
Sequence of EPHB1 (P54762 whole entry, looked up): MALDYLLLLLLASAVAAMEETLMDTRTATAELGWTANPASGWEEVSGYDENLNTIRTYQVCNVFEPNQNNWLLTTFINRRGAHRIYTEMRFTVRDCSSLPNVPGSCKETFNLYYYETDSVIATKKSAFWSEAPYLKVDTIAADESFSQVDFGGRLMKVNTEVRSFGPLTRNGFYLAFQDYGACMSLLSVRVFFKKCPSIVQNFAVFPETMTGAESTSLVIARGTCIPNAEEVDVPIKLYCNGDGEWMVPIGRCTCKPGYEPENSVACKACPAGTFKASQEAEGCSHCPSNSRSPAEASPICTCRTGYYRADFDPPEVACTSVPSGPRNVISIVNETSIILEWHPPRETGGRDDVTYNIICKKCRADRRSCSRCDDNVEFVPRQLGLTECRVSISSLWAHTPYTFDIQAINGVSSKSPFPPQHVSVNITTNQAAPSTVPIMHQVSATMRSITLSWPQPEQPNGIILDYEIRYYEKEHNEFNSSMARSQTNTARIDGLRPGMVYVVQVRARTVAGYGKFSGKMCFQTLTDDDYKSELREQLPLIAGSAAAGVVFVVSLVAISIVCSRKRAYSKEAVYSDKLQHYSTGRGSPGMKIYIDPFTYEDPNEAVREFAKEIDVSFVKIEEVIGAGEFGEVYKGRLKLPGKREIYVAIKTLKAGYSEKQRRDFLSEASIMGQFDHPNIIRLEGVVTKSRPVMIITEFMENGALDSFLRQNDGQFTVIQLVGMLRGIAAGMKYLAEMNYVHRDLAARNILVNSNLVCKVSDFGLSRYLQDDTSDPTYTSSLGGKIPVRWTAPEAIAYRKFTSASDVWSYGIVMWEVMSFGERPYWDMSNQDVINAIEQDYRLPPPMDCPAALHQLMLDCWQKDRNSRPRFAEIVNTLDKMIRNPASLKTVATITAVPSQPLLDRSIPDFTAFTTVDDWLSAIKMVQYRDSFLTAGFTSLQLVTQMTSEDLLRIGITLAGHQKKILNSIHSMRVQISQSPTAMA

c-Abl (mouse) = experiment: as above
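Wherever SH2 binding enrichment of the phosphorylated peptide, bacterial display is given: peptide library displayed on the E. coli surface as eCPX fusions, selected cells deep-sequenced, score is each peptide's frequency after selection divided by its frequency in the input.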
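Wherever phosphorylation enrichment, bacterial display is given: 11-residue human phosphosite peptides and single-mutation variants displayed on the E. coli surface, counted by deep sequencing, each peptide's frequency after selection divided by its frequency in the unselected input library; frequency after pTyr selection over input frequency; kinase dosed for 20-30% of maximal phosphorylation in three min.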

| SH2 binding enrichment (c-Src SH2) | SH2 binding enrichment (Grb2 SH2) | SH2 binding enrichment (SHP2-C SH2) | Sequence | phosphorylation enrichment (Fer (mouse)) | phosphorylation enrichment (Fyn) | phosphorylation enrichment (FGFR3) | phosphorylation enrichment (Jak2) | phosphorylation enrichment (MERTK) | phosphorylation enrichment (Fes) | phosphorylation enrichment (FGFR1) | phosphorylation enrichment (c-Src) | phosphorylation enrichment (AncSZ) | phosphorylation enrichment (EPHB2) | phosphorylation enrichment (Hck) | phosphorylation enrichment (EPHB1) | phosphorylation enrichment (c-Abl (mouse)) |
| --- | --- | --- | --- | --- | --- | --- | --- | --- | --- | --- | --- | --- | --- | --- | --- | --- |
| 0.498 | 0.748 | 0.674 | SKEPYYVRCIK [MYO1D_Y586] | 0.501 | 0.417 | 0.669 | 1 | 0.403 | 0.966 | 0.58 | 0.451 | 1.06 | 0.511 | 0.405 | 0.566 | 0.705 |
| 0.489 | 0.759 | 0.595 | SKNSKYNAEST [PSEN1_Y315] | 0.396 | 0.363 | 0.366 | 0.673 | 0.35 | 0.609 | 0.339 | 0.425 | 0.482 | 0.426 | 0.351 | 0.309 | 0.52 |
| 0.653 | 6.01 | 0.82 | SKQGKYLNWDA [ATM_Y54] | 0.454 | 0.396 | 0.527 | 0.666 | 0.399 | 0.856 | 0.437 | 0.445 | 0.79 | 0.507 | 0.427 | 0.384 | 0.491 |
| 1.05 | 0.887 | 1 | SLGSPYEQPPR [PDLIM4_Y137_G138E] | 0.474 | 0.495 | 0.565 | 0.673 | 0.581 | 0.757 | 0.46 | 0.547 | 0.909 | 0.493 | 0.619 | 0.487 | 0.747 |
| 0.629 | 0.899 | 0.993 | SLQSEYVHFGG [CDC14A_Y591_YF] | 0.442 | 0.783 | 0.972 | 0.875 | 0.509 | 0.963 | 1.36 | 0.889 | 1.24 | 0.746 | 0.596 | 1.09 | 0.734 |
| 0.533 | 0.587 | 0.69 | SLQSEYVHYGG [CDC14A_Y591] | 0.441 | 0.69 | 0.95 | 0.655 | 0.558 | 0.774 | 0.811 | 0.848 | 0.919 | 0.973 | 0.927 | 0.854 | 0.6 |
| 0.578 | 0.771 | 0.791 | SMAKYYASGIA [ACADSB_Y373_E376G] | 0.444 | 0.331 | 0.469 | 0.665 | 0.381 | 0.622 | 0.437 | 0.394 | 0.497 | 0.7 | 0.463 | 0.408 | 0.599 |
| 0.68 | 1.21 | 0.659 | SPDMLYQYLKQ [RPAP3_Y567] | 11.6 | 1.18 | 2.04 | 0.727 | 7.39 | 0.692 | 3.36 | 1.96 | 1.09 | 1.78 | 8.16 | 3.35 | 0.856 |
| 0.502 | 0.808 | 0.713 | SQQTFCRVSNM [ABCD1_Y181_Y181C_YF] | 0.408 | 0.453 | 0.615 | 0.554 | 0.412 | 0.679 | 0.446 | 0.411 | 0.636 | 0.515 | 0.5 | 0.461 | 0.567 |
| 0.607 | 0.644 | 0.473 | SRASYYRKGGC [ALK_Y1283_Y1278S] | 0.326 | 0.38 | 0.335 | 0.641 | 0.428 | 0.5 | 0.414 | 0.52 | 0.522 | 0.371 | 0.37 | 0.34 | 0.585 |
| 0.8 | 0.979 | 0.789 | SRDDDYETIAM [NPY1R_Y347] | 1.11 | 0.612 | 0.753 | 1.16 | 0.5 | 1.28 | 0.599 | 0.562 | 1.75 | 1.03 | 0.737 | 1.31 | 0.977 |
| 2.25 | 0.958 | 0.747 | SRDPFYEMLTA [CYTH1_Y382_A386T] | 11 | 2.38 | 4.25 | 0.975 | 8.32 | 1.07 | 7.02 | 3.17 | 1.25 | 2.82 | 5.45 | 4.93 | 0.71 |
| 1.12 | 1.15 | 1.37 | SRIWVYNHFRW [BRCA2_Y2621_YF] | 0.413 | 0.423 | 0.78 | 1.13 | 0.44 | 1.29 | 0.435 | 0.479 | 1.15 | 0.612 | 0.477 | 0.597 | 0.853 |
| 0.569 | 0.845 | 0.593 | SRVTQYERNFE [SNX1_Y463_D466N] | 0.438 | 0.45 | 0.499 | 0.662 | 0.379 | 0.813 | 0.453 | 0.377 | 0.763 | 0.387 | 0.435 | 0.421 | 0.634 |
| 0.398 | 0.557 | 0.764 | SSEYHCVGGFY [CTSC_Y347_Y347C] | 0.64 | 1.76 | 5.2 | 1.37 | 0.775 | 1.45 | 7.73 | 1.82 | 2.32 | 4.66 | 1.72 | 3.8 | 7.61 |
| 0.399 | 0.808 | 0.518 | SSNLFYRCLTA [CNGA3_Y169_W171C_YF] | 0.497 | 0.384 | 0.742 | 1.12 | 0.42 | 1.36 | 0.491 | 0.454 | 1.03 | 0.632 | 0.429 | 0.638 | 1.06 |
| 0.706 | 0.688 | 0.53 | SSSAIYDNPNL [DCP1B_Y191] | 9.27 | 8.1 | 0.457 | 0.632 | 8.1 | 0.737 | 0.411 | 5.76 | 0.898 | 15.6 | 9.85 | 12.2 | 22.5 |
